These results are taken from paper PMC4357726.

In this series the target is T1, TtHisRS (histidyl-tRNA synthetase) (Thermus thermophilus HB27 (ATCC …, UniProt P62374 1-421)).
T1 sequence: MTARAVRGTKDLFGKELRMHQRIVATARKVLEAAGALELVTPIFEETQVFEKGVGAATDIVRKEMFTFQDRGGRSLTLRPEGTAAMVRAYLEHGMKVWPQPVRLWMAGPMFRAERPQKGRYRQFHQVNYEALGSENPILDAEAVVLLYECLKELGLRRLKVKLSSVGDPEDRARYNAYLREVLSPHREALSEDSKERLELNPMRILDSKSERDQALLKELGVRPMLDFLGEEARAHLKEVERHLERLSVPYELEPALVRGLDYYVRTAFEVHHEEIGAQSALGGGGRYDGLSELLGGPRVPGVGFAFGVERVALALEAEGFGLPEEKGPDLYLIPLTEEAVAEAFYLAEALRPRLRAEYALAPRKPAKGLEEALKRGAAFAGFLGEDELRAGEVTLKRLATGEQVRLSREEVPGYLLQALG
The series is described as follows: X-ray crystallography.

B1: tRNAHis(GUG) transcript (TttRNAHis) (structured_RNA)
RNA: GGUGAGCGUAGCUCAGCUGGUAGACCACCGGACUGAGAUCCGGGGGUCGUGGGUUCAAGUCCCAUCGCUCACCCCA
For B1, the binding result is recorded as “binds”.
